According to patent US20240228562A1 (Pieris, published 2024):
Positions count from the first letter of the chain named.

T1: recombinant rat CTGF protein (R&D Systems) (rat, UniProt Q9R1E9 25-347)
T1 construct: Bought; also called rCTGF
T1 sequence: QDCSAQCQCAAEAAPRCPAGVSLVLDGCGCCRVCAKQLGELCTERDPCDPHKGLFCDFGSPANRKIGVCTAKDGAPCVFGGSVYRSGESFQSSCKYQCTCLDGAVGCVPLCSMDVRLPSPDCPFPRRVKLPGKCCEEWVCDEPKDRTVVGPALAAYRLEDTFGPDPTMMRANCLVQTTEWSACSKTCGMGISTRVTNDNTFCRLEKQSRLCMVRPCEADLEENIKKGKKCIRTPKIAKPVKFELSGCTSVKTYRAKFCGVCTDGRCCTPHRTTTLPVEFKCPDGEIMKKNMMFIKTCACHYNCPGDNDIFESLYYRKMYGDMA

T2: mouse CTGF (Abbexa) (mouse, UniProt P29268 26-348, limits assumed)
T2 construct: also called Murine CTGF; mCTGF
T2 sequence (looked up): T1 sequence with R16H, V148A

B1: lipocalin mutein of SEQ ID NO: 27 (designed binder)
chain: QDSTSDLIPAPPLSKVPLQQNFQDNQFQGKWYVVGLAGNYRLREDKDPSKMGATIYELKEDKSYDVTQVQFDDKKCLYVIETFVPGSQPGEFTLGAIKSYPGLTSQLVRVVSTNYNQHAMVFLKKVYGSEEYFHITLYGRTKELTSELKENFIRFSKSLGLPENHIVFPVPIDQCIDG
notes: also called hNGAL mutein; not shown: C-terminal His-tag
B2: lipocalin mutein of SEQ ID NO: 26 (designed binder)
chain: B1 chain with A96N, S99V, G102T, T104E, L123F, G128Q, S129N, E130R, Y132V, H134W
notes: as for B1
B3: lipocalin mutein of SEQ ID NO: 28 (designed binder)
chain: B1 chain with L123V, Y127W, G128P, S129N, E130L, H134Q, T136V
notes: as for B1
B4: lipocalin mutein of SEQ ID NO: 16 (designed binder)
chain: QDSTSDLIPAPPLSKVPLQQNFQDNQFQGKWYVVGLAGNAILRTDKQPAKMFATIYELKEDKSYDVTSVRFEAKSCVYTIKTFVPGSQPGEFTAGNIKSAPGQTSTLVRVVSTNYNQHAMVFFKHVSQNREFFVITLYGRTKELTSELKENFIRFSKSLGLPENHIVFPVPIDQCIDG
notes: as for B1
B5: lipocalin mutein of SEQ ID NO: 19 (designed binder)
chain: B4 chain with T44E, V77S, F123H, H125A, F132S
notes: as for B1
B6: lipocalin mutein of SEQ ID NO: 22 (designed binder)
chain: B4 chain with L36I, T44V, F132I
notes: as for B1
B7: lipocalin mutein of SEQ ID NO: 10 (designed binder)
chain: B4 chain with T44E, V77S, F123W, H125S, S127A, Q128G, N129T, F132S, V134N, T136A
notes: as for B1
B8: lipocalin mutein of SEQ ID NO: 18 (designed binder)
chain: B4 chain with L36I, T44D, Q47Y, A73N, V77I, A94H, A100H, F132I
notes: as for B1
B9: lipocalin mutein of SEQ ID NO: 14 (designed binder)
chain: B4 chain with T44E, Q47Y, V77I, A94R, F132I
notes: as for B1
B10: lipocalin mutein of SEQ ID NO: 13 (designed binder)
chain: B4 chain with T44E, Q47Y, A73N, I80S, A94T
notes: as for B1
B11: lipocalin mutein of SEQ ID NO: 21 (designed binder)
chain: B4 chain with T44E, V77S, H125A, S127R, Q128G, N129A, F132S, V134N, T136A
notes: as for B1
B12: lipocalin mutein of SEQ ID NO: 11 (designed binder)
chain: B4 chain with T44E, V77S, I80S, F132T
notes: as for B1
B13: lipocalin mutein of SEQ ID NO: 12 (designed binder)
chain: B4 chain with T44E, Q47Y, A73N, A94T
notes: as for B1
B14: lipocalin mutein of SEQ ID NO: 30 (designed binder)
chain: QDSTSDLIPAPPLSKVPLQQNFQDNQFHGKWYVVGWAGNIKLREDKDPFKMSATIYELKEDKSYDVTEVVFEQKKCHYIIKTFVPGSQPGEFTLGDIKSPPGETSSLVRVVSTNYNQHAMVFFKKVFQNREFFWITLYGRTKELTSELKENFIRFSKSLGLPENHIVFPVPIDQCIDG
notes: also called optimized lipocalin mutein; hNGAL mutein
B15: lipocalin mutein of SEQ ID NO: 32 (designed binder)
chain: QDSTSDLIPAPPLSKVPLQQNFQDNQFQGKWYVVGWAGNVKLREDKQPFKMSATIYELKEDKSYDVTEVVFEQKKCHYIIKTFVPGSQPGEFTLSPISSSPGLVSHLVRVVSTNYNQHAMVFFKKVHQNREFFWITLYGRTKELTSELKENFIRFSKSLGLPENHIVFPVPIDQCIDG
notes: as for B1
B16: lipocalin mutein of SEQ ID NO: 33 (designed binder)
chain: QDSTSDLIPAPPLSKVPLQQNFQDNQFQGKWYVVGWAGNAKLREDKQPFKMSATIYELKEDKSYDVTEVVFEQKKCHYIIKTFVPGSQPGEFTEGNYKRRPRLWSDLVRVVSTNYNQHAMVFFKKVHQNREFFWITLYGRTKELTSELKENFIRFSKSLGLPENHIVFPVPIDQCIDG
notes: as for B1
B17: lipocalin mutein of SEQ ID NO: 8 (designed binder)
chain: QDSTSDLIPAPPLSKVPLQQNFQDNQFQGKWYVVGLAGNYGLRTDKRPSKMFATIYELKEDKSYDVTSVRFEQERCHYTIRTFVPGSQPGEFTSGNIGNYPGSYSTLVRVVSTNYNQHAMVFFKSVIQNREYFAITLYGRTKELTSELKENFIRFSKSLGLPENHIVFPVPIDQCIDG
notes: as for B1
B18: lipocalin mutein of SEQ ID NO: 4 (designed binder)
chain: QDSTSDLIPAPPLSKVPLQQNFQDNQFHGKWYVVGRAGNNRLREDKDPPKMWATIYELKEDKSYDVTHVHFMTKKCRYIIDTFVPGSQPGEFTLGAIKSGPGMTSPLVRIVSTNYNQHAMVFFKWVNQNREWFTITLYGRTKELTSELKENFIRFSKSLGLPENHIVFPVPIDQCIDG
notes: as for B14
B19: lipocalin mutein of SEQ ID NO: 5 (designed binder)
chain: QDSTSDLIPAPPLSKVPLQQNFQDNQFQGKWYVVGKAGNALREDKEPPKMWATIYELKEDKSYDVTHVHFLTKKCKYLIDTFVPGSQPGEFTIGAIKSGPGLTSPLVRVVSTNYNQHAMVFFKWVSQNREWFTITLYGRTKELTSELKENFIRFSKSLGLPENHIVFPVPIDQCIDG
notes: as for B1

Target: T3, recombinant human CTGF-Fc protein (Creative Biomart) (human)
T3 construct: Bought; also called human CTGF with a human IgG1 Fc Tag
T3 sequence (chain, as listed by the source limits assumed): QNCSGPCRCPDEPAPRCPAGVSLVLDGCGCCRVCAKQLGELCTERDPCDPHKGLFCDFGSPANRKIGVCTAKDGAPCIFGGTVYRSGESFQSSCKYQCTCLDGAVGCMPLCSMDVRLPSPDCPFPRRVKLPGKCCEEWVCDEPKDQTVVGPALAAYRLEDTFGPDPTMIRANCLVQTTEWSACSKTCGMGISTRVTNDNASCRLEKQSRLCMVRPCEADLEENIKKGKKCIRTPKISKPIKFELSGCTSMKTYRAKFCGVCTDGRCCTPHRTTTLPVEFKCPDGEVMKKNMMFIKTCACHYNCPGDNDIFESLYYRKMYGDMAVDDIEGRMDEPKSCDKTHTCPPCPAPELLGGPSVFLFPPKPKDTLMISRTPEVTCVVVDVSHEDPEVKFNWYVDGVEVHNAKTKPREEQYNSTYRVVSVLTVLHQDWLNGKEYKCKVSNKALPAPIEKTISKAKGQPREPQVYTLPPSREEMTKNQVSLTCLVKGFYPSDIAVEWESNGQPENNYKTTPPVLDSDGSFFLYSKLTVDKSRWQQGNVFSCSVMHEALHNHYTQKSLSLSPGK
Experiment: SPR (Biacore)
Protocol: (§1) The binding of exemplary lipocalin muteins to human (Creative Biomart), cynomolgus, rat (R&D Systems) and mouse CTGF (Abbexa) was determined by SPR using a Biacore instrument (Cytiva, formerly GE Healthcare). Some targets were fused to a human IgG1 Fc tag, and captured via the anti-human IgG antibody kit, others were directly immobilized.
(§2) For some measurements, human CTGF with a human IgG1 Fc Tag or rat or murine CTGF without a tag were directly immobilized to a CM5 Chip. The carboxyl groups on the chip were activated using 1-ethyl-3-(3-dimethylaminopropyl)-carbodiimide (EDC) and N-hydroxysuccinimide (NHS). […] Residual non-reacted NHS-esters were blocked by passing a solution of 1 M ethanolamine across the surface. The reference channel was activated/deactivated. For the capture setting, targets with an IgG Fc Tag at 0.25-2.5 μg/mL in HBS-EP+ buffer were captured by the anti-human IgG-Fc antibody at the chip surface for 180 s at a flow rate of 10 μL/min.
(§3) The binding assay was carried out with a contact time of 180 s, a dissociation time of 900-3600 s and a flow rate of 30 μL/min. All measurements were performed at 25° C. […] For the directly immobilized targets, the same regeneration conditions were used. Prior to the protein measurements, three startup cycles were performed for conditioning purposes.

Kd [nM]	koff [s⁻¹]	kon [M⁻¹ s⁻¹]	binding result	Binder
0.802	2.45e-05	30500	–	B1
1.32	3.06e-05	23200	–	B2
0.517	2.61e-05	50400	–	B3
0.76	7.02e-05	92300	–	B4
0.918	5.2e-05	56600	–	B5
0.057	8.05e-06	142000	–	B6
0.033	2.23e-06	67700	–	B7
0.074	3.05e-06	40900	–	B8
0.523	5.34e-05	102000	–	B9
0.049	2.51e-06	51000	–	B10
0.523	6.63e-05	127000	–	B11
2.44	0.000108	44400	–	B12
2.4	0.000133	55600	–	B13
–	–	–	binds	B14
0.587	6.39e-05	109000	–	B15
0.099	1.71e-05	172000	–	B16
2.52	0.000114	45400	–	B17
–	–	–	binds	B18
0.315	6.65e-05	211000	–	B19

Target: T1, recombinant rat CTGF protein (R&D …)
Experiment: SPR (Biacore)
Protocol: as §1, §2, §3

Kd [nM]	koff [s⁻¹]	kon [M⁻¹ s⁻¹]	Binder
0.221	4.01e-05	181000	B6
0.46	4.08e-05	88800	B7
0.226	6.3e-05	279000	B16
1.23	0.000362	294000	B19

Target: T2, mouse CTGF (Abbexa)
Experiment: SPR (Biacore)
Protocol: as §1, §2, §3

Kd [nM]	koff [s⁻¹]	kon [M⁻¹ s⁻¹]	Binder
4.16	0.000172	41400	B1
5.89	0.000208	35300	B2
1.35	8.23e-05	60700	B3
0.393	6.34e-05	161000	B4
0.273	2.54e-05	93200	B5
0.369	7.03e-05	190000	B9
0.173	3.94e-05	228000	B11
1.02	8.19e-05	80100	B12
1.41	0.000128	91400	B13
1.98	0.000264	133000	B15
0.301	5.29e-05	176000	B16
1.81	0.000131	72000	B17
